Results reported in PMC12159506.

B1: SmBiT-C-CaSR-WT [not stated] / LgBiT-N-AP2σ-WT [not stated] (parent)
chain 1: not shown
chain 2: YGPDQRAQKKGDIILGGLFPIHFGVAAKDQDLKSRPESVECIRYNFRGFRWLQAMIFAIEEINSSPALLPNLTLGYRIFDTCNTVSKALEATLSFVAQNKIDSLNLDEFCNCSEHIPSTIAVVGATGSGVSTAVANLLGLFYIPQVSYASSSRLLSNKNQFKSFLRTIPNDEHQATAMADIIEYFRWNWVGTIAADDDYGRPGIEKFREEAEERDICIDFSELISQYSDEEEIQHVVEVIQNSTAKVIVVFSSGPDLEPLIKEIVRRNITGKIWLASEAWASSSLIAMPQYFHVVGGTIGFALKAGQIPGFREFLKKVHPRKSVHNGFAKEFWEETFNCHLQEGAKGPLPVDTFLRGHEESGDRFSNSSTAFRPLCTGDENISSVETPYIDYTHLRISYNVYLAVYSIAHALQDIYTCLPGRGLFTNGSCADIKKVEAWQVLKHLRHLNFTNNMGEQVTFDECGDLVGNYSIINWHLSPEDGSIVFKEVGYYNVYAKKGERLFINEEKILWSGFSREVPFSNCSRDCLAGTRKGIIEGEPTCCFECVECPDGEYSDETDASACNKCPDDFWSNENHTSCIAKEIEFLSWTEPFGIALTLFAVLGIFLTAFVLGVFIKFRNTPIVKATNRELSYLLLFSLLCCFSSSLFFIGEPQDWTCRLRQPAFGISFVLCISCILVKTNRVLLVFEAKIPTSFHRKWWGLNLQFLLVFLCTFMQIVICVIWLYTAPPSSYRNQELEDEIIFITCHEGSLMALGFLIGYTCLLAAICFFFAFKSRKLPENFNEAKFITFSMLIFFIVWISFIPAYASTYGKFVSAVEVIAILAASFGLLACIFFNKIYIILFKPSRNTIEEVRCSTAAHAFKVAARATLRRSNVSRKRSSSLGGSTGSTPSSSISSKSNSEDPFPQPERQKQQQPLALTQQEQQQQPLTLPQQQRSQQQPRCKQKVIFGSGTVTFSLSFDEPQKNAMAHRNSTHQNSLEAQKSSDTLTRHEPLLPLQCGETDLDLTVQETGLQGPVGGDQRPEVEDPEELSPALVVSSSQSFVISGGGSTVTENVVNS

Variants of: B1
Test: NanoBiT split-luciferase
Settings: with LgBiT-N-AP2σ-WT; N = 10; read off a plot
For chain 2 R990A, the response was 3.8.
With chain 2 H991A the response was 3.
For chain 2 L994A L995A, the response was 2.1.
For chain 2 P993A, the response was 4.5.

Same assay, conditions: with LgBiT-N-AP2σ-WT; N = 7; read off a plot
In the case of chain 2 S959A, the response is reported as 4.8.
Work on chain 2 T987A yielded a response of 4.9.
With chain 2 L994A L995A the response was 2.4.
chain 2 T989A was tested, and the response was 4.7.
chain 2 S985A showed a response of 4.9.

Same assay, conditions: with LgBiT-N-AP2σ-WT; N = 6; read off a plot
With chain 2 L994A L995A the response was 3.2.
In the case of chain 2 R990A H991A E992A P993A L994A L995A, the response is reported as 3.6.
